The data set concerns the molecule itself. As to the kind of experiment: native gel or EMSA. Background: Mobility shift assays separate free from complexed probe on a gel.

B1: C-terminal truncated DDX3X (domain or fragment, human, UniProt O00571 1-582, looked up)
chain: MSHVAVENALGLDQQFAGLDLNSSDNQSGGSTASKGRYIPPHLRNREATKGFYDKDSSGWSSSKDKDAYSSFGSRSDSRGKSSFFSDRGSGSRGRFDDRGRSDYDGIGSRGDRSGFGKFERGGNSRWCDKSDEDDWSKPLPPSERLEQELFSGGNTGINFEKYDDIPVEATGNNCPPHIESFSDVEMGEIIMGNIELTRYTRPTPVQKHAIPIIKEKRDLMACAQTGSGKTAAFLLPILSQIYSDGPGEALRAMKENGRYGRRKQYPISLVLAPTRELAVQIYEEARKFSYRSRVRPCVVYGGADIGQQIRDLERGCHLLVATPGRLVDMMERGKIGLDFCKYLVLDEADRMLDMGFEPQIRRIVEQDTMPPKGVRHTMMFSATFPKEIQMLARDFLDEYIFLAVGRVGSTSENITQKVVWVEESDKRSFLLDLLNATGKDSLTLVFVETKKGADSLEDFLYHEGYACTSIHGDRSQRDREEALHQFRSGKSPILVATAVAARGLDISNVKHVINFDLPSDIEEYVHRIGRTGRVGNLGLATSFFNERNINITKDLLDLLVEAKQEVPSWLENMAYEHHYKG
In the case of B1, the binding result is recorded as “binds”.

Source of the values: publication PMC8154130 (ACS Omega, 2021).
